Results: patent US20090297479A1
One block for each substance: values may come before it.

Assays:
[1] = biological target: PD-1 on human peripheral blood CD4+ T cells (human) (UniProt Q15116); test: cell-based or functional assay
[2] = biological target: syndecan-4 (SD-4), human (human) (UniProt P31431); test: cell-based or functional assay
Sequence of syndecan-4 (SD-4), human (human) (P31431 19-198): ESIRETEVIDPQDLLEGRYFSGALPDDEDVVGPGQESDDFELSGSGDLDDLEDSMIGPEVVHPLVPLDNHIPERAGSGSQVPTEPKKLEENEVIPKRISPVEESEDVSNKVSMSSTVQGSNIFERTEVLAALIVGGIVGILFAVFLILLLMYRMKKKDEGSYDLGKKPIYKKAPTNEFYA

Sequence of PD-1 on human peripheral blood CD4+ T cells (human) (Q15116 25-288): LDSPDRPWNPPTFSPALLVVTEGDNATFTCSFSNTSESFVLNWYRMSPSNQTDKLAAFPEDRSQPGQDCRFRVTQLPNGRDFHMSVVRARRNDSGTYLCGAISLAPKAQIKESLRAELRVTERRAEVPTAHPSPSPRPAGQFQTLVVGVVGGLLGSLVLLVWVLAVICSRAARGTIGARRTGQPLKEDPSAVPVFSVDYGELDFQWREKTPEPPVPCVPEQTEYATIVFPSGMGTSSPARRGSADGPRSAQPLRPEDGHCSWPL
Sequence of saporin-conjugated DC-HIL (human DC-HIL-Fc, biotinylated and conjugated with streptavidin-saporin) (Q14956 23-498): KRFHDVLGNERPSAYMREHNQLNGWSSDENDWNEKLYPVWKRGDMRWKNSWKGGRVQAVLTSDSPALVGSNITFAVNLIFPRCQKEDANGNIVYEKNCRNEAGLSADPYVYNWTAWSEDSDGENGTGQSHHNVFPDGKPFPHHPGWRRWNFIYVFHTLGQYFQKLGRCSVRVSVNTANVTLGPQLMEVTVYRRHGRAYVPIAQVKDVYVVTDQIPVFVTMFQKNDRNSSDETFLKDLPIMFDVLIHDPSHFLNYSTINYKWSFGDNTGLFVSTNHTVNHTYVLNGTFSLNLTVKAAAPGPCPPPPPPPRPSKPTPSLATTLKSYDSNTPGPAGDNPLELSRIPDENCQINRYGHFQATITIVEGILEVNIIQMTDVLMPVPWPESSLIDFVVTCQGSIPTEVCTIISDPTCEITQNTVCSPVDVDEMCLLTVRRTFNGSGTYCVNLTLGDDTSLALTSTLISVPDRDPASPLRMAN

- inhibition of proliferation induced by 0.3 µg/ml anti-CD3 Ab, Ab at 40 µg/ml [1]: 50 % inhibition
- reduction of T cell proliferation at 0.1 µg/ml anti-CD3 Ab [1]: 50%
- reduction of T cell proliferation at the highest dose (3 µg/ml) of anti-CD3 Ab [1]: 10%
Substance: anti-PD-1 Ab (MIH4) (antibody)

- IL-2 production by HUT-78 cells triggered by anti-CD3 Ab [2]: < 70%
Substance: human DC-HIL-Fc (extracellular domain of human DC-HIL fused to the Fc portion of mouse IgG2a) (from UniProt Q14956 23-498) (Fc fusion)

Substance: saporin-conjugated DC-HIL (human DC-HIL-Fc, biotinylated and conjugated with streptavidin-saporin) (from UniProt Q14956 23-498)
- proliferation (3H-thymidine) of HUT-78 cells [2]: 60 % reduction
